According to patent EP0554446B1:

Experiments:
[1] = biological target: HIV-1 IIIB gp120 (HIV-1 IIIB) (UniProt P03375); test: cell-based or functional assay
[2] = biological target: HIV-1 RF gp120 (HIV-1 RF) (UniProt P04579); test: cell-based or functional assay
[3] = biological target: HIV-1 MN gp120 (HIV-1 MN) (UniProt P05877); test: cell-based or functional assay
[4] = biological target: HIV-1 MN gp120 (HIV-1 MN) (UniProt P05877); test: RIA of hybridoma supernatant on live HIV-1MN-infected against uninfected H9 cells, 125I rabbit anti-mouse IgG
[5] = biological target: HIV-1 MN gp120 (HIV-1 MN) (UniProt P05877); test: ELISA of hybridoma supernatant on membranes of MN-infected against uninfected H9 cells

UniProt P05877, sequence (P05877 32-856): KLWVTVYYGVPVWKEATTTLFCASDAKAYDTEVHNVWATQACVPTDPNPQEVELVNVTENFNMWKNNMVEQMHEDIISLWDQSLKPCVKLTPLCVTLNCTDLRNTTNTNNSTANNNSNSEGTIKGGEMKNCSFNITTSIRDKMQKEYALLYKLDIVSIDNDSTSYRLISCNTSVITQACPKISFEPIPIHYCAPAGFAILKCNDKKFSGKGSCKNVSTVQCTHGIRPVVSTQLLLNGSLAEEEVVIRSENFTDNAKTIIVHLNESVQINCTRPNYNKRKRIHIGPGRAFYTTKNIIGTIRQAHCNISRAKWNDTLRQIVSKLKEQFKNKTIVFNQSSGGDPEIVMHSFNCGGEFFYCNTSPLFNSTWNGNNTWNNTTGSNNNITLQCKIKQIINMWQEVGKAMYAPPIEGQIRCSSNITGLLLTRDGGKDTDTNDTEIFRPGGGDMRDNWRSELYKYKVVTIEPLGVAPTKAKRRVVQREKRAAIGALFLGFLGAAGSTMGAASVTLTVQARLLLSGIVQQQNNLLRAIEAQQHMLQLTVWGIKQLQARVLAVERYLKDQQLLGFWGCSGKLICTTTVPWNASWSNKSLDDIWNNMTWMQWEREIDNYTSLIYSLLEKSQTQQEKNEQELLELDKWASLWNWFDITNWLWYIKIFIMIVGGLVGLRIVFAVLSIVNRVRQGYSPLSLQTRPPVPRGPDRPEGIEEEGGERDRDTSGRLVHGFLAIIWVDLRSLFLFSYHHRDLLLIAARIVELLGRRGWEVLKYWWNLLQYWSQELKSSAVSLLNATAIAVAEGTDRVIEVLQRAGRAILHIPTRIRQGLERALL
UniProt P04579, sequence (P04579 32-865): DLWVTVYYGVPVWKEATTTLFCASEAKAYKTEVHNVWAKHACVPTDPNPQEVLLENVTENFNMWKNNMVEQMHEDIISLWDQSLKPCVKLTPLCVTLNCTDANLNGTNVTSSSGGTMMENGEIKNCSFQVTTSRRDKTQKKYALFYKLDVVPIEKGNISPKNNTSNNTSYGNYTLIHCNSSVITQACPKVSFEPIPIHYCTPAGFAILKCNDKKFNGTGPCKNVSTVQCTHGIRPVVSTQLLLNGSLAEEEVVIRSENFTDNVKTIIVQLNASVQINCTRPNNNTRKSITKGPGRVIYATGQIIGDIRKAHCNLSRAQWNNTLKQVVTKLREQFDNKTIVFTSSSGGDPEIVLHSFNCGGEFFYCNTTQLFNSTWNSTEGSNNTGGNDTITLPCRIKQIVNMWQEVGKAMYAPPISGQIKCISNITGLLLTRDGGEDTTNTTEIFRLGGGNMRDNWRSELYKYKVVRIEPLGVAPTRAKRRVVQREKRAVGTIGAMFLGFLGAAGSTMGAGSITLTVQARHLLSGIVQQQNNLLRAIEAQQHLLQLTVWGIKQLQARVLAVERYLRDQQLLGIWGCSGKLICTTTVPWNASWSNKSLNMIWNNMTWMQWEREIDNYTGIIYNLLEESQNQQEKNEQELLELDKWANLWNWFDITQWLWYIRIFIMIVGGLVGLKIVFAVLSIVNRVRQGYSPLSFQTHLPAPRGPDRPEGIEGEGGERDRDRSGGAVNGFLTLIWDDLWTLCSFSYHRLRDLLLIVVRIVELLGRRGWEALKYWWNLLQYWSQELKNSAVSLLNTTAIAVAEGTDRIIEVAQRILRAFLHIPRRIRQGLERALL

Q: With monoclonal antibody NM-01 as the substance, how does the ID50, live IIIB virus, MT-2 assay [1] read?
A: The ID50, live IIIB virus, MT-2 assay was 0.1 µg/mL.

Q: And the ID50, live IIIB virus, reverse transcriptase assay [1]?
A: Its ID50, live IIIB virus, reverse transcriptase assay is 0.1 µg/mL.

Q: What about the ID50, syncytium formation by IIIB-infected H9 cells with C8166 cells [1] of the same substance?
A: The ID50, syncytium formation by IIIB-infected H9 cells with C8166 cells was 3 µg/mL.

Q: What about the percent inhibition of syncytium formation by IIIB-infected cells at 25 µg antibody [1] of the same substance?
A: The percent inhibition of syncytium formation by IIIB-infected cells at 25 µg antibody was 85%.

Q: What about the ID50, live RF virus, reverse transcriptase assay [2] of the same substance?
A: Its ID50, live RF virus, reverse transcriptase assay is 0.05 µg/mL.

Q: What about the ID50, syncytium formation by RF-infected cells [2] of the same substance?
A: The ID50, syncytium formation by RF-infected cells was 4 µg/mL.

Q: And the percent inhibition of syncytium formation by RF-infected cells at 25 µg antibody [2]?
A: The percent inhibition of syncytium formation by RF-infected cells at 25 µg antibody was 59%.

Q: What about the ID50, live MN virus, MT-2 assay [3] of the same substance?
A: The ID50, live MN virus, MT-2 assay was 2 µg/mL.

Q: What about the ID50, live MN virus, reverse transcriptase assay [3] of the same substance?
A: The ID50, live MN virus, reverse transcriptase assay was < 1 µg/mL.

Q: What about the ID50, syncytium formation by MN-infected H9 cells with C8166 cells [3] of the same substance?
A: Its ID50, syncytium formation by MN-infected H9 cells with C8166 cells is 2 µg/mL.

Q: What about the percent inhibition of syncytium formation by MN-infected cells at 25 µg antibody [3] of the same substance?
A: The percent inhibition of syncytium formation by MN-infected cells at 25 µg antibody was 85%.

Q: And the RIA Ratio cpm inf/cpm uninf [4]?
A: The RIA Ratio cpm inf/cpm uninf was 9.81.

Q: And the ELISA ratio, infected cell membranes to uninfected cell membranes (Run 1) [5]?
A: The ELISA ratio, infected cell membranes to uninfected cell membranes (Run 1) was 5.76.
